In patent publication US20250171516A1, “PEPTIDE ACIDS AS A GLP1R AGONIST AND ANTIBODY-DRUG CONJUGATES THEREOF” (Regeneron Pharmaceuticals, Inc., priority 2023, published 2025):
Non-standard residues stand in square brackets, D forms with d. Groups on a side chain read outwards from the residue. No end group written: not given here. M3190 payload = not defined here; AA10 = not defined here; AA1 = not defined here; AA2 = not defined here; AA6 = not defined here; AA9 = not defined here

What was measured:
GLP1R humanized mouse = experiment: In vivo conversion of c-M3190 ATL to c-M6009 after s.c. dosing; conditions: 7 days
Procedure: From a tryptic digestion of the parent M3190-ATL, peptide c-M3190 is a peptide and their structures/sequences were determined by high resolution mass spectroscopy as shown below.
11.4 Syntheses and Characterization of Peptide Compounds Identified from M3190 Metabolite Study

[1] = biological target: T1, GLP-1R of the cAMP assay of Tables 10, 14 and 15 (human, UniProt P43220 24-463, limits assumed); experiment: cell-based or functional assay
[2] = biological target: full-length human GLP1R (GenBank: AAI12127.1) expressed on HEK293/CRE-Luc/hGLP1R cells (human, UniProt P43220 24-463); experiment: cell-based or functional assay
[3] = biological target: hGLP1R-PK: full-length human GLP1R (NP_002053.3) with a C-terminus fusion to ProLink (PK), on … (human, UniProt P43220 24-463); experiment: cell-based or functional assay
[4] = biological target: T1, GLP-1R of the cAMP assay of Tables 10, …; experiment: cell-based or functional assay; remark: listed apart in the source

Molecule: c-M3190 ATL: "Peptide C-M3190 identified from metabolite studies of M3190-antibody conjugate"; "From a tryptic digestion of the parent M3190-ATL" (LLQ(M3190 payload)GSGDIQMTQSPSSVSASVGDR; reading uncertain)
- conversion of c-M3190 ATL to c-M6009 (GLP1R humanized mouse): slowly converted to c-M6009 after 7 days

B1: M6324 (AA10-AA9-AA8-AA7-AA6-AA5-AA4-AA3-(L)AA2-OH) (peptide)
peptide: [AA10][AA9]GT[AA6]TSD[AA2](Leu)-OH
modifications: reading uncertain; also: printed as M6324 (AA10-AA9-AA8-AA7-AA6-AA5-AA4-AA3-(L)AA2-OH)
- GLP-1R CAMP EC50 [1]: 882 nM
- GLP-1R CAMP Max (%) [1]: 53.3%
- EC50 (M), CRE-dependent reporter activity, HEK293/CRE-Luc/hGLP1R [2]: 2.93e-07 M
- Emax (% GLP-1), CRE-dependent reporter activity, HEK293/CRE-Luc/hGLP1R [2]: 91.6 % GLP-1
- EC50 (M), b-Arrestin2 recruitment, HEK293/b-arrestin2/hGLP1R [3]: > 1e-06 M
- Emax (% GLP-1), b-Arrestin2 recruitment, HEK293/b-arrestin2/hGLP1R [3]: 0.7 % GLP-1

B2: Q-M3190 (AA10-AA9-AA8-AA7-AA6-AA5-AA4-AA3-(Q-L)AA2-AA1-NH2) (peptide)
peptide: [AA10][AA9]GT[AA6]TSD[AA2]([Leu-Gln])[AA1]-NH2
modifications: reading uncertain; also: printed as Q-M3190 (AA10-AA9-AA8-AA7-AA6-AA5-AA4-AA3-(Q-L)AA2-AA1-NH2)
- cAMP EC50 (nm) [4]: 1.07 nm
